Laboratory results from the DeepSol protein solubility set.

Experiment: soluble on expression in E. coli; label from the status in PepcDB or PDB records

| Sequence | soluble on expression in E. coli |
| --- | --- |
| MGSDKIHHHHHHMIINRSKDSSSNEISFVSKDMGFLLTQSEVSYNFKDKLVEDIAKQVFAENRLSVGTIAKTNVKYTKMFIGVNGYDTIMSAYTEASKKTKKKYMIEANLDKFNVIEKGTVTLSVMFEEGFNIINTTFSESMENVKNKVIVVDQYGSKISEKIDNEIFKEVNVIMQKVIQQQENQDVDIDSEFNGIEKSCSLKGYGDVSCITGRGVKVKDSYTKLVGLFYIDTDKHTWQNGEYQIELELNFQNLMDEKSAGQDEPKEESNLGGEDYAGGKEFTAEFTAYCPRKEEGGDTDCRKKKLDPSKKTCAAPMVGKYEQTYYTKEFLNKHPLLNYGDEIQVITGVSGRDGVYKVNDVGPAITIEKNGTYHIDILFGNVEEASKFGRRKGKIIIGGYSGNVSDKAKIVISEAKKHLGKPYKWGGNGPSSFDCSGLMVYCFKKVNVSLPRTSNQQSKKGKKVEQKNLQAGDLVFFHNPVSHVGLYIGNGEFLHAPQKGDVVKISKLSSRRDFNTARRVL | not soluble |
| MTAFSTLNVLPPAQLTNLNELGYLTMTPVQAAALPAILAGKDVRVQAKTGSGKTAAFGLGLLQQIDASLFQTQALVLCPTRELADQVAGELRRLARFLSNTKILTLCGGQPFGMQRDSLQHAPHIIVATPGRLLDHLQKGTVSLDALNTLVMDEADRMLDMGFSDAIDDVIRFAPASRQTLLFSATWPEAIAAISGRVQRDPLAIEIDSTDALPPIEQQFYETSSKGKIPLLQRLLSLHQPSSCVVFCNTKKDCQSVCDALNEVGQSALSLHGDLEQRDRDQTLVRFANGSARVLVATDVAARGLDIKSLELVVNFELAWDPEVHVHRIGRTARAGNSGLAISFCAPEEAQRANIISDMLQIKLNWQTLPANSSIVPLEAEMATLCIDGGKKAKMRPGDVLGALTGDIGLDGADIGKIAVHPAHVYVAVRQAVAHKPWKQLQGGKIKGKTCRVRLLK | soluble |
| MDLSIFKNARAKPVPRPAPAGAASGLHDPLAPTIFHEAWWLDASAPDGWSETLVRADNRIVGRLPYMILRKPFGQTSCEMPKFAHFLGPAVAPGPGARANRALKEAQIVRELHEQLPPTGNLYMRMHRGVTDTMVHAEAGLHMLVNFTFEIAPGCEQAIWAGMRDKTRNIIRRAQEKHCVSDTLDPRDFAACYRRNVDEAGHESYYETDEIVRVCTAALERGRGRILSATGPDGGLAAAIFTIWDATSCYYLLATRSRGEDHGATSLLLWEAIRHANRMGLIFDFDGLYTRGNRVFFTGFGGTVHPRYVVCGSTRTYRATAALSKALSRLRRP | not soluble |
| SLIFILGIFYYLTQPLKSNSVVFIPQGSISQIITYLKQNKYQMSNIDKYILFFLGHPQSGWINIGTKDLNRAEFLHKLTIAKAALQTITLIPGETSVIFLEQAAKQLGLDKDILLKEFQAQAPYDEGVFLPETYKIPKGITENLLIQMLLNHAEISNKKTSEKIFGDYNPKKWHQYIIIASVIQKEAANDNEMPIVASVIYNRLKKGMKLQMDGTLNYGIYSHVKVTPQRIRQDNSFYNTYKFTGLPKEAVCNVSLAAIRAAIFPLKTDYLYFVRDKNTGVHIFSTNIDDHNKAINLQKGK | soluble |
| AIETETLVVGAGPGGYVAAIRAAQLGQKVTIVEKGNLGGVCLNVGCIPSKALISASHRYEQAKHSEEMGIKAENVTIDFAKVQEWKASVVKKLTGGVEGLLKGNKVEIVKGEAYFVDANTVRVVNGDSAQTYTFKNAIIATGSRPIELPNFKFSNRILDSTGALNLGEVPKSLVVIGGGYIGIELGTAYANFGTKVTILEGAGEILSGFEKQMAAIIKKRLKKKGVEVVTNALAKGAEEREDGVTVTYEANGETKTIDADYVLVTVGRRPNTDELGLEQIGIKMTNRGLIEVDQQCRTSVPNIFAIGDIVPGPALAHKASYEGKVAAEAIAGHPSAVDYVAIPAVVFSDPECASVGYFEQQAKDEGIDVIAAKFPFAANGRALALNDTDGFLKLVVRKEDGVIIGAQIIGPNASDMIAELGLAIEAGMTAEDIALTIHAHPTLGEIAMEAAEVAL | soluble |
| MGSDKIHHHHHHMGNKIYPIGIQNFESLRLDGYFYIDKTALIYQLVKSGRYYFLSRPRRFGKSLLISTLEAYFQGKKELFQGLAMEKLEKDWTKYPILHIDLNTQKYDSPQSLESKLNRTLVTWEKLYGSEPAEDSLSMRFEGTIQRAYEQTGQRVVILVDEYDKPMLQAIGNKELQNSFRETLKAFYGALKSKDGCIKFAMLTGVTKFGKVSVFSDLNNLDDISMWNEYIELCGISEKEIHKNLETELHEFADVQKMTYDSFCEKLRQYYDGYHFTHNSIGMYNPFSLLNAFKRKEFGSYWFETGTPTYLVELLKRHHYNLERMAHEETNAQVLNSIDSESTSPIPVIYQSGYLTIKGYDEEFGIYHLGFPNKEVEEGFIQFLVPYYTSMNNVESPFEI | not soluble |
| MELFTFIPYFLLLEREESDRNTLANANTEFIREVYELQRVEKDVTLVFFQLQYLSCKLVILREHYRTAQKEHLPCYAYIIGTLEYLKGLLDRCRFIHKCGSAIAPACLPTTEGDPPVCWTAEVICLMELLYACHELKMFNGGEVTLGRVVEYVCHVLGVNVKNASSYYARMRRRKAGDRTYFIDRLREVLLKRMEDDDEGHRRRNR | not soluble |
| MSSPERDEGTPVPDSRGHCDADTVSGTPDRRPLLGEEKAVTGEGRAGIVGSPAPRDVEGLVPQIRVAAARQGESPPSVRGPAAAVFVTPKYVEKAQETRGAESQARDVKTEPGTVAAAAEKSEVATPGSEEVMEVEQKPAGEEMEMLEASGGVREAPEEAGPWHLGIDLRRNPLEAIQLELDTVNAQADRAFQHLEQKFGRMRRHYLERRNYIIQNIPGFWMTAFRNHPQLSAMIRGRDAEMLRYVTSLEVKELRHPKTGCKFKFFFRRNPYFRNKLIVKEYEVRSSGRVVSLSTPIIWRRGHEPQSFIRRNQDLICSFFTWFSDHSLPESDRIAEIIKEDLWPNPLQYYLCREGIRRPRRRPIREPVEIPRPFGFQSG | not soluble |
| MSLQPSKRYEIGISQTIGKNDRMQDTANVLGELFPNIDIIGIFDGHNGEEAARYCLISMKNEFNCLNPKDCEHQLPQIFESIHNNISSQTISGTTASICIIRSDDVVLAHVGDSPIYFYENGGKVINIKGVDRVNGQINLSRSLGDKLLQPPLTYKPDISIHSLSMKYIVIVTDGVTDSLSDSEMEIILSQPLSPDQIAATIRNNAFINGSVDNISVIVIQIIEGHHHHHH | soluble |
| MMKDLNLSNSLFKGYNDKHGLMICGYEWGWSKADEAAYVAGEYKLPENKIDHTFANKSLYFGEQAKKWRYDNTIKNWFEMWGHPLDENGLGGAFEKSLVQTNWAATQGNTIDNPDKFTQPEHIDNFLYHIEKLRPKVILFMGSRLADFLNNQNVLPRFEQLVGKQTKPLETVQKEFDGTRFNVKFQSFEDCEVVCFPHPSASRGLSYDYIALFAPEMNRILSDFKTTRGFK | not soluble |
| MSLTKPIIGITANVRPNPAHEDIKWSYAPSGFVEGVQKAGGLAILLPVSDPLEAKTYISMIDKLILIGGQNIDPKFYNEENHACEDDFFLERDLFEMALIEEATKQKKPIFSICRGTQLMNVALGGSLHQDIKRHWQDKPSDYLYHEIIIDKNSKLAEIYGLETSINSFHHQSIKHLASDLRVIARDPEDNTVEAIESNTPDLRYLGVQWHPELLLNKREEDLKLFEYVVDELEGHHHHHH | soluble |
| GEGLGEEVIEEVYEELLSSFDTEYGGFSGAPKFPTPHKISFLLRYWRRSRNPEALHMAEYTLDKMRRGGIYDHLGSGFHRYSTDSMWLLPHFEKMLYDQALTAIAYTEAYQVTGKDLYKETAEGILDYVLRDLTSPEGGFYCGEDADVEREEGKYYLWTLEEIRSILDPEDSELIIKMFNLREEGNFEEEIRGRETGTNLFYMARSPGSLAAKMKIPVEEVEKKVKAAREKLLKARYERKRPSLDDKILTDWNGLMIAAFAKGYQVFGEQRYLKAAEKAADFILMALYSPGDGLLHRYRDGVAGISGTSDDYAFLIHGLLELYEAGFKMRYLKAAVSLNSELLECFWDPVNGGLYFTANDSEALIFRKKE | not soluble |
| MGSDKIHHHHHHMAFNQRTVVMIGPGEHYVTAKNEVIKTLLGSCVAVCLYDPKAQVIGMNHFLLAADRRKFTHFLDSRAGYYGVHAMEILINAMLKRGAQRKYLQSKIFGGANVLSLCADNILNHYDIGGMNIDFVRHFLQRERIPIISEDIGGHCGRVIYFDPTDYSVYRSLIEHKYEEIASLQDEEYRYFNQASEDIHSSGVPVVIWSD | not soluble |
| MAEYKFYYFNGRGLGDVSRQLFALSGTKYEDIRIEHADWPAQKPKMPFGQMPVLELSSGLQIPQSMAIARYLAKKFGYAGKTDEEAALADALIDQFKDFYAEIKPYYYAKIGVLQNDTEEEKKKTLIPARDKFLTIIGKFLKLSISGFLFSGGLTYADLMICDNMRTLIAWWPEYLNEYPDIKAWYQKVDGIPEIRKHLESSPDKGF | soluble |
| MATTKPYRVLLYYMYTTIENPEEFAAEHLEFCNSLELKGRILVAKEGINGTCSGTVEQTEKYMEAMNNDPRFDGIVFKIDEADGHAFKKMHVRPRPELVTLRLEDDINPHEITGKYLEPKDFYEAMKQEDTVIIDARNDYEFDLGHFKGAIKPDIESFRELPDWIRENKEVLEGKKILTYCTGGIRCEKFSGWLVREGYEDVSQLHGGIVTYGKDPEVQGELWDGQCYVFDERIAVPVNQKEHVIVGKDHFTGEPCERYVNCANPECNKKILCSEENEAKYLRACSHECRVSPRNRYVIQHELTEEQVAAALEQIEAGKLEHHHHHH | not soluble |
| MSTGITYDEDRKTQLIAQYESVREVVNAEAKNVHVNENASKILLLVVSKLKPASDIQILYDHGVREFGENYVQELIEKAKLLPDDIKWHFIGGLQTNKCKDLAKVPNLYSVETIDSLKKAKKLNESRAKFQPDCNPILCNVQINTSHEDQKSGLNNEAEIFEVIDFFLSEECKYIKLNGLMTIGSWNVSHEDSKENRDFATLVEWKKKIDAKFGTSLKLSMGMSADFREAIRQGTAEVRIGTDIFGARPPKNEARII | soluble |
| MGSDKIHHHHHHLAIFIQYIDTLKLVSIGKNDMYSIEQLEAFVATVKTGSFSSAARALNKAQSVISQHVINLEIDCNSELFDRSGRYPQLTPAGKKLLPHAQVLLSQHQRLRDCAQSLDQQAISELTIGLDEGIPLQKLFNIINELEAKFPTITLEFLTASSIDIIDMIDTERAVTGIIFSELTIPAHIDFESIGSIKFDMYVASTHLLAQQIYDNLAHLKLHRQLLIRSRNTKSSSFQFAISPDVWYADNYYILLELALQGHGWCLLPNHIANHYVDSGQLVMLPSEFKEIGWQANVDVIQHHRYSHEPVFKQLRHSLRQLLTYSA | not soluble |
| MSKFTIGPLPCKNPESFTKLSAKKDTVRKTEPVEVVCRNVEGENNGECYKIKAPKTPFIINHLEKNYIPKPKETTKKRRAGEAGGVKREHSTSESDDQLEDANQPSTSSQQSSSRKKQRNQQDI | not soluble |
| MGSDKIHHHHHHPSLTCVMEGKDIEDWSCCPTPWTSFQSSCYFISTGMQSWTKSQKNCSVMGADLVVINTREEQDFIIQNLKRNSSYFLGLSDPGGRRHWQWVDQTPYNENVTFWHSGEPNNLDERCAIINFRSSEEWGWNDIHCHVPQKSICKMKKIYI | not soluble |
| MGSDKIHHHHHHMIDSSLVLDAETIRNFVKSVNDADSMDKVRAAVSSFAEELRSKSSENGISIREDVLKSILQRIASSHTTELARHYANEVYNMAFISRKLPYSDIDLSRWREYDFVITDSLWLFDKRDYRGSKLGWYWGNFVPQIPRQLILRFSRKDEWVLDPFSGSGTTLIEAKKLGRNSLGIEINEEVCKKSLEILNSIDGDGFSTAISGDSASVNLTKVMEYYGIPEFNLVIMHPPYHDIIKFTDIGGDLSNARDTKEFLSMLGKVTRNVSKYLQKGRFLALVIGDKYSNGEWIPLGFYSMQKVMDQGFRLKSTIVKNFEYTRGKASSSDLWRYRALAGGFYVFKHEYIFVFQKT | not soluble |
